Experimental data from patent publication US20240287501A1 (VIB VZW, published 2024).

Legend:
[1] = target: T1, GFP-tagged PGI1 (Saccharomyces cerevisiae, UniProt P12709 2-554); assay: co-immunoprecipitation, Nb coupled to NHS-agarose beads, lysate of the yeast strain expressing the GFP-tagged target, SDS-PAGE
T1 construct: Yeast GFP Fusion Collection strain; 88 kDa band; also called GFP-PGI1; Yeast GFP fusion collection GFP(+)12, H11; not shown: GFP tag
Experimental: (§1) Each PGI1-specific Nanobody was covalently linked to NHS-agarose beads. The beads that were functionalized with these PGI1-specific Nanobodies were incubated for an hour at 4° C. on a rotating device with either an EBY100 lysate or the lysate of the engineered Yeast strain expressing PGI1 (Yeast GFP fusion collection reference: GFP(+)12, H11) as a GFP-tagged protein. After washing, these beads analyzed on SDS-PAGE (FIG. 14A). Separated proteins were transferred to a PVDF membrane and the Western blot was developed with a GFP-specific antibody to confirm the presence of GFP-tagged PGI1 (FIG. 14B). 55=Nb clone CA17455 corresponding to SEQ ID NO: 15, used as trapper/stripper for PGI1, serves as a positive control.
(§2) Individual clones were isolated from the enriched sub-library by plating tenfold serial dilutions of the overnight-grown phage-infected E. coli TG1 cells in LB. 96 individual clones were picked and grown in a 96-well plate containing LB supplemented with 100 μg/mL ampicillin. Plasmids containing the Nanobody encoding genes were purified, sequenced and grouped into sequence families (Material and methods). A representative member of each sequence family was selected. Six different PGI1 specific Nanobodies, derived from four different sequence families (Nb clone CA17791 corresponding to SEQ ID NO: 46, CA17792-SEQ ID NO:47, CA17793-SEQ ID NO:48, CA17794-SEQ ID NO:49, CA17795-SEQ ID NO:50, and CA17796-SEQ ID NO:51) were selected based on their CDR3 sequences. Their encoding plasmid was transformed into the E. coli WK6 expression strain to express and purify each Nanobody of interest. The specificity of the PGI1-specific Nanobodies was confirmed by linking separate Nanobodies on NHS-agarose beads for co-immunoprecipitation assays. The beads that were functionalized with these PGI1-specific Nanobodies and incubated for an hour at 4° C. on a rotating device with either an EBY100 lysate expressing native (un-tagged) PGI1 or the lysate of the engineered yeast strain (GFP(+)12, H11) expressing PGI1 as a GFP-tagged protein. After washing, these beads were resuspended in SDS-PAGE loading dye and analyzed on SDS-PAGE (FIG. 14A). Separated proteins were also transferred to PVDF membranes and the Western blot was developed with a GFP-specific antibody to confirm the presence of the GFP-tagged PGI1 (FIG. 14B).

[2] = target: T2, PGI1 (native, un-tagged, from EBY100 lysate) (Saccharomyces cerevisiae, UniProt P12709 2-554); assay: co-immunoprecipitation, Nb coupled to NHS-agarose beads, EBY100 yeast lysate (native target), SDS-PAGE
T2 construct: mature; Endogenous untagged protein, 61 kDa band; also called YBR196C; endogenous PGI1
T2 sequence (P12709 2-554): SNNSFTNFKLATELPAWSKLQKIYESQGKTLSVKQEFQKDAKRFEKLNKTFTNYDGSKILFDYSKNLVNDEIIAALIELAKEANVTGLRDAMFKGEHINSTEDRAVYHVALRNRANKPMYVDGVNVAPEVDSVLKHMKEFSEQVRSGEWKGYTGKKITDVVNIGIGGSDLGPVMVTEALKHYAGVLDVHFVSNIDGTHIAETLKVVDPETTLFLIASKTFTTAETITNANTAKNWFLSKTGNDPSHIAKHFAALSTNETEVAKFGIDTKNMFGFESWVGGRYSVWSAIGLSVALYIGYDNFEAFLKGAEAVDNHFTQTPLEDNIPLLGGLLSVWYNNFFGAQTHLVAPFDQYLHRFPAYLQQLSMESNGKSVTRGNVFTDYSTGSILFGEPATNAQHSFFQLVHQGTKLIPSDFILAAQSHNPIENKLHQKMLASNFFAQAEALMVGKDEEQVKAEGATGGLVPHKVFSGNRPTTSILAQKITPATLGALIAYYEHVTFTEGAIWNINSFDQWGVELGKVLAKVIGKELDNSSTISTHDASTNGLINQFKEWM
Experimental: as §1, §2

[3] = target: T3, GFP protein (Aequorea victoria (Water jellyfish) …, UniProt P42212 1-238 = GFP, biotinylated with the EZ-Link sulfo-NHS-LC-biotinylation kit for the BLI assay; unmodified in the NANEX selections); assay: BLI (Octet), biotinylated GFP on streptavidin sensors saturated with CA12760, second step CA12760 + 2nd Nb
T3 construct: Purified GFP; also called wild type GFP; biotinylated GFP
Experimental: The binding properties of the newly discovered GFP-specific Nanobodies were analysed by a Bio-layer interferometry (BLI) on an OctetRed (molecular devices). Streptavidin-coated Octet® biosensors were used to capture biotinylated GFP (100 nM). Next, the picomolar GFP stripper (CA12760; SEQ ID NO:1) was allowed to bind to GFP until a plateau was reached. These CA12760-saturated biosensors were next incubated separately in solutions containing each newly discovered Nb (as indicated in the legend of the figure), supplemented with CA12760 Nb. Assays were performed in HEPES 25 mM pH 7.5, NaCl 150 mM supplemented with BSA 0.1% and Tween₂₀ 0.005% at room temperature.
Epitope analysis. […] For this we loaded the Streptavidin biosensor with biotinylated GFP, next we allowed CA12760 (SEQ ID NO:1), the GFP-stripper with picomolar affinity, to bind to GFP. After washing, this biosensor loaded with the GFP-CA12760 complex was incubated with the newly discovered Nbs.
Epitope mapping of GFP Nanobodies by Bio-layer interferometry (BLI). Streptavidin-coated Octet® biosensors were used to capture biotinylated GFP (100 nM). Unbound biotinylated GFP is washed off from biosensor by two washing steps (60 seconds in buffer). Next, Streptavidin-coated Octet® biosensors with GFP were first incubated for 400 seconds with 20 nM CA12760, the GFP stripper, washed briefly, followed by an incubation of 400 seconds in a premix of 20 nM CA12760 with the different Nbs to be tested. Data were analyzed on an OctetRed (molecular devices). All assays were performed in HEPES 25 mM pH 7.5, NaCl 150 mM supplemented with BSA 0.1% and Tween₂₀ 0.005% at room temperature.

[4] = target: T4, SSA1 (native, from EBY100 lysate) (Saccharomyces cerevisiae, UniProt P10591 2-642); assay: co-IP, Nb on NHS-agarose beads, EBY100 yeast lysate, SDS-PAGE
T4 construct: mature; Endogenous untagged protein; also called YAL005C
T4 sequence (P10591 2-642): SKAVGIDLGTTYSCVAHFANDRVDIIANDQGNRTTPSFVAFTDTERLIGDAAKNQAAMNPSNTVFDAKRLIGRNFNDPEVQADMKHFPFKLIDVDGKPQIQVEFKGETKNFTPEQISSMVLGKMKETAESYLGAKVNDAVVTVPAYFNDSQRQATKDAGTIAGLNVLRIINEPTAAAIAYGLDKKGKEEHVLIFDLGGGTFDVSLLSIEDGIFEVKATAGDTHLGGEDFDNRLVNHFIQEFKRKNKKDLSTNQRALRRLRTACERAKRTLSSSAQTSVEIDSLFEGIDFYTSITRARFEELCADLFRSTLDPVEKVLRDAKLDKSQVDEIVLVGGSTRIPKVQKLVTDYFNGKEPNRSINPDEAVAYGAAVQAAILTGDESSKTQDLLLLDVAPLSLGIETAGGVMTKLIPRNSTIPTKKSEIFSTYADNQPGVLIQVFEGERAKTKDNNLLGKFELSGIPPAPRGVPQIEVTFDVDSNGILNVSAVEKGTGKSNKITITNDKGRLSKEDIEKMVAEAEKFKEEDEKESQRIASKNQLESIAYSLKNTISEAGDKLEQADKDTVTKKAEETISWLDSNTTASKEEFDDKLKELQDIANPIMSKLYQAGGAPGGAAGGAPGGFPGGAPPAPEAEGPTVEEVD

[5] = target: T5, GFP-tagged SSA1 (Saccharomyces cerevisiae, UniProt P10591 2-642); assay: co-immunoprecipitation, Nb coupled to NHS-agarose beads, lysate of the yeast strain expressing the GFP-tagged target, Western blot anti-GFP
T5 construct: Yeast GFP Fusion Collection strain; also called Yeast GFP fusion collection GFP(+)10, E4; not shown: GFP tag
T5 sequence (P10591 2-642): as above
Experimental: Six SSA1-specific Nanobodies (60=Nb clone CA17560 corresponding to SEQ ID NO: 19, 61=CA17561-SEQ ID NO: 20, 62=CA17562-SEQ ID NO: 21, 63=CA17563-SEQ ID NO: 22, 64=CA17564-SEQ ID NO: 23, 65=CA17565-SEQ ID NO: 24) were characterized by co-immunoprecipitation assays. Each SSA1-specific Nanobodies was covalently linked to NHS-agarose beads. The beads that were functionalized with these SSA1-specific Nanobodies were incubated for an hour at 4° C. on a rotating device with either an EBY100 lysate or the lysate of the engineered Yeast strain expressing SSA1 (Yeast GFP fusion collection reference: GFP(+)10, E4) as a GFP-tagged protein. After washing, these beads were resuspended in SDS-PAGE loading dye and analyzed on SDS-PAGE (FIG. 6A). Separated proteins were transferred to a PVDF membrane and the Western blot (FIG. 6B) was developed with GFP-specific antibody to confirm the presence of GFP-tagged SSA1.

T1 sequence (P12709 2-554): as the sequence (P12709 2-554) above

B1: CA17792 (VHH)
VHH: QVQLVESGGGLVQPGGSLRLSCAASGISFGSYTMAWYRQAPGKQRDMVADITTGGRTNYADSVKGRFTISRDNAKNTVYLQMNSLKSEDTAVYYCKADFAYGRDLTYWGQGTQVTVSS
notes: C-terminal 6xHis-EPEA tag is part of the entry
B1: binds [1]; binds [2].

B2: CA17794 (VHH)
VHH: QVQLVESGGGLVQPGGSLRLSCTASGVTFSRYAMSWYRQAPGKERELVATITGAGSSTNYEDSVKGRFTISRDNAKNTVYLQMNSLKPEDTAVYYCYADHYGLGYLDYWGQGTQVTVSS
notes: as for B1
B2: binds [1]; binds [2].

B3: CA17793 (VHH)
VHH: QVQLVESGGGLVRPGGSLRLSCAASGITFSSYTMGWYRQAPGKQRELVATITTGGSTNYAVSAKGRFTISRDNANNRVTLQMNSLNSEDTAAYYCHSRFAYGPLEYWGQGTQVTVSS
notes: as for B1
B3: binds [1]; binds [2].

B4: CA17519 (VHH)
VHH: QVQLVESGGGLVQPGGSLRLSCAASGRIFSIYVMGWYRQAPGKQRELVAQITNSGRTKFADSVKGRFTISRDNAKNMVYLQMNSLKAEDTAVYYCYADLDWYGGTANNDFWGQGTQVTVSS
notes: as for B1
B4: binds [3].

B5: CA17675 (VHH)
VHH: QVQLVESGGKLVPAGDSLRLSCAASGRTFSDYIIGWFRQVSGKERKFVAAIRRSDGETVYTDSVKGRFTISRDNAKNTVYLQMNSLKPEDTAVYYCYLNNRNSRGSMDAYWGQGTQVTVSS
notes: as for B1
B5: binds [3].

B6: CA17518 (VHH)
VHH: QVQLVESGGGLVQAGGSLRLSCVTSGFTFDDYAIGWFRQAPGKEREGVSSISSSDGTTYYADSVKGRFTISSDNAKNTVYLQMNNLKPEDTAVYYCAADWAAWPSIRVGVGVPAYEYDYWGQGTQVTVSS
notes: as for B1
B6: binds [3].

B7: CA17562 (VHH)
VHH: QVQLVESGGGLVQPGGSLRLSCAASGFDFSRNRLNWHRQAPGKQRELVATIGSNGPRYADSVKDRFTISRDNEKNTVYLEMNSVKPEDTAVYYCAARGYWGQGTQVTVSS
notes: as for B1
B7: binds [4]; binds [5].

B8: CA8780 (VHH)
VHH: QVQLQESGGGLVQPGGSLRLSCAPSGPFSPNSMGWYRQAPGKQRELVAVMTIDGRTNYQDSVKGRFTISRDYVKNTAYLQMNNLKPDDTAVYICNAETRGFMHWGQGTQVTVSS
notes: Control Nanobody; C-terminal 6xHis-EPEA tag is part of the entry; also called irrelevant Nb
B8: no binding [3].

B9: CA17563 (VHH)
VHH: QVQLVESGGGTVQAGDSLRLSCSASGRALTPYTMAWFRQPPGKERELVAAIGRTGSGTRYAEAVKDRFTISRDNDKQELYLQMNSLKPEDTAVYYCAANRRLTTSLEYDYWGQGTQVTVSS
notes: as for B1
B9: binds [4]; binds [5].

B10: CA17517 (VHH)
VHH: QVQLVESGGGLVQPGGSLRLSCAASGRTFSNYIMGWFRQPPGKEREFVATISWSGSDTVYASSVKGRFTISRDNAKSTVYLQMNSLKPEDTAIYYCAAKDAVGYWSSDVYSEAKEYDYWGQGTQVTVSS
notes: as for B1
B10: binds [3].

B11: CA17674 (VHH)
VHH: QVQLVESGGGLVQPGDFLRLSCAASDRTFSNYIMGWFRQAPGKEREFVATISWSGSDTVYASSVKGRFTISRDNAKSTVYLKMNSLKPEDTAIYYCAAKYAVGYWGNDVASEAKDYNYWGQGTQVTVSS
notes: as for B1
B11: binds [3].

B12: CA17791 (VHH)
VHH: QVQLVESGGGLVQPGGSLRLSCAASGITFSSYAMGWYRQAPGKERELVARITSGGSTDYAVSVKGRFTISRDNANNLVYLQMNSLNSEDTAVYYCHSQYSYGPLEYWGQGTQVTVSS
notes: as for B1
B12: binds [1]; binds [2].

B13: CA17796 (VHH)
VHH: QVQLVESGGGLVQPGGSLRLSCAASGISFHSYAMGWYRQAPGKQRELVSTITTGGSTDYAVSVKGRFTISRDNAKNTVYLQMNNLNSEDTAVYYCHSQYAYGPLEYWGQGTQVTVSS
notes: as for B1
B13: binds [1]; binds [2].

B14: CA17520 (VHH)
VHH: QVQLVESGGGLVQTGGSLRLSCAASVRTFSNYIMGWFRQAPGKEREFVATISWSGINTYYADNVKGRFTISRDNARNTVYLQMNSLKPEDTAIYYCAAKSAVGYYHDSYASRAEEYDYWGQGTQVTVSS
notes: as for B1
B14: binds [3].

B15: CA17673 (VHH)
VHH: QVQLVESGGGLVQAGGSLRLSCAASARAFMNYIMGWFRQAPGKEREFVATISWSGVTTDYADNVKGRFTISRDNAKNTVSLQMNSLKPEDTAIYYCAAKSAVGYYSDIYNSRAKEYDYWGQGTQVTVSS
notes: as for B1
B15: binds [3].

B16: CA17676 (VHH)
VHH: QVQLVESGGGLVQAGGSLRLSCAGSGGTFSAYTMGWFRQGLGEERELVACISRSGASTFYTDPVKGRFTISRDNDKNTVYLQMNNLKPEDTAVYYCAADWTVIDEITEQRSKHQTSYDYWGQGTQVTVSS
notes: as for B1
B16: binds [3].

B17: CA17795 (VHH)
VHH: QVQLVESGGGLVQPGGSLRLSCAASGSFFNINAMAWYRQAPGKQRELVAVIASSGRTNYADSVSGRFTISRDNAKNTVYLQMNSLKPEDTAVYYCNSKIRQASWNLVLSDHWGQGTQVTVSS
notes: as for B1
B17: binds [1]; binds [2].
